Test results: patent US20240400708A1

Molecular target: feline FcRn complex (FcRn-α subunit and β-microglobulin), biotin labeled (feline)
Assay: SPR, pH 6

| Kd | Binder |
| --- | --- |
| 53 nM | feline IgG1a S254A (antibody, part only; not given: Variable domains, not shown: another chain or arm of the molecule) constant: ASTTAPSVFPLAPSCGTTSGATVALACLVLGYFPEPVTVSWNSGALTSGVHTFPAVLQASGLYSLSSMVTVPSSRWLSDTFTCNVAHPPSNTKVDKTVRKTDHPPGPKPCDCPKCPPPEMLGGPSIFIFPPKPKDTLSIARTPEVTCLVVDLGPDDSDVQITWFVDNTQVYTAKTSPREEQFNSTYRVVSVLPILHQDWLKGKEFKCKVNSKSLPSPIERTISKAKGQPHEPQVYVLPPAQEELSRNKVSVTCLIKSFHPPDIAVEWEITGQPEPENNYRTTPPQLDSDGTYFVYSKLSVDRSHWQRGNTYTCSVSHEALHSHHTQKSLTQSPGK |
| 42.7 nM | feline IgG1a S254L (antibody, part only; not given: variable domains and light chain, not shown: another chain or arm of the molecule) constant: ASTTAPSVFPLAPSCGTTSGATVALACLVLGYFPEPVTVSWNSGALTSGVHTFPAVLQASGLYSLSSMVTVPSSRWLSDTFTCNVAHPPSNTKVDKTVRKTDHPPGPKPCDCPKCPPPEMLGGPSIFIFPPKPKDTLSILRTPEVTCLVVDLGPDDSDVQITWFVDNTQVYTAKTSPREEQFNSTYRVVSVLPILHQDWLKGKEFKCKVNSKSLPSPIERTISKAKGQPHEPQVYVLPPAQEELSRNKVSVTCLIKSFHPPDIAVEWEITGQPEPENNYRTTPPQLDSDGTYFVYSKLSVDRSHWQRGNTYTCSVSHEALHSHHTQKSLTQSPGK |
| 14.4 nM | feline IgG1a S434I (antibody, part only; not given: Variable domains, not shown: another chain or arm of the molecule) constant: ASTTAPSVFPLAPSCGTTSGATVALACLVLGYFPEPVTVSWNSGALTSGVHTFPAVLQASGLYSLSSMVTVPSSRWLSDTFTCNVAHPPSNTKVDKTVRKTDHPPGPKPCDCPKCPPPEMLGGPSIFIFPPKPKDTLSISRTPEVTCLVVDLGPDDSDVQITWFVDNTQVYTAKTSPREEQFNSTYRVVSVLPILHQDWLKGKEFKCKVNSKSLPSPIERTISKAKGQPHEPQVYVLPPAQEELSRNKVSVTCLIKSFHPPDIAVEWEITGQPEPENNYRTTPPQLDSDGTYFVYSKLSVDRSHWQRGNTYTCSVSHEALHIHHTQKSLTQSPGK |
| 64.2 nM | feline IgG1a S254G (antibody, part only; not given: Variable domains, not shown: another chain or arm of the molecule) constant: ASTTAPSVFPLAPSCGTTSGATVALACLVLGYFPEPVTVSWNSGALTSGVHTFPAVLQASGLYSLSSMVTVPSSRWLSDTFTCNVAHPPSNTKVDKTVRKTDHPPGPKPCDCPKCPPPEMLGGPSIFIFPPKPKDTLSIGRTPEVTCLVVDLGPDDSDVQITWFVDNTQVYTAKTSPREEQFNSTYRVVSVLPILHQDWLKGKEFKCKVNSKSLPSPIERTISKAKGQPHEPQVYVLPPAQEELSRNKVSVTCLIKSFHPPDIAVEWEITGQPEPENNYRTTPPQLDSDGTYFVYSKLSVDRSHWQRGNTYTCSVSHEALHSHHTQKSLTQSPGK |
| 568 nM | feline IgG1a S254F (antibody, part only; not given: Variable domains, not shown: another chain or arm of the molecule) constant: ASTTAPSVFPLAPSCGTTSGATVALACLVLGYFPEPVTVSWNSGALTSGVHTFPAVLQASGLYSLSSMVTVPSSRWLSDTFTCNVAHPPSNTKVDKTVRKTDHPPGPKPCDCPKCPPPEMLGGPSIFIFPPKPKDTLSIFRTPEVTCLVVDLGPDDSDVQITWFVDNTQVYTAKTSPREEQFNSTYRVVSVLPILHQDWLKGKEFKCKVNSKSLPSPIERTISKAKGQPHEPQVYVLPPAQEELSRNKVSVTCLIKSFHPPDIAVEWEITGQPEPENNYRTTPPQLDSDGTYFVYSKLSVDRSHWQRGNTYTCSVSHEALHSHHTQKSLTQSPGK |
| 0.711 nM | feline IgG1a S254E (antibody, part only; not given: Variable domains, not shown: another chain or arm of the molecule) constant: ASTTAPSVFPLAPSCGTTSGATVALACLVLGYFPEPVTVSWNSGALTSGVHTFPAVLQASGLYSLSSMVTVPSSRWLSDTFTCNVAHPPSNTKVDKTVRKTDHPPGPKPCDCPKCPPPEMLGGPSIFIFPPKPKDTLSIERTPEVTCLVVDLGPDDSDVQITWFVDNTQVYTAKTSPREEQFNSTYRVVSVLPILHQDWLKGKEFKCKVNSKSLPSPIERTISKAKGQPHEPQVYVLPPAQEELSRNKVSVTCLIKSFHPPDIAVEWEITGQPEPENNYRTTPPQLDSDGTYFVYSKLSVDRSHWQRGNTYTCSVSHEALHSHHTQKSLTQSPGK |
| 61.4 nM | feline IgG1a S428C (antibody, part only; not given: Variable domains, not shown: another chain or arm of the molecule) constant: ASTTAPSVFPLAPSCGTTSGATVALACLVLGYFPEPVTVSWNSGALTSGVHTFPAVLQASGLYSLSSMVTVPSSRWLSDTFTCNVAHPPSNTKVDKTVRKTDHPPGPKPCDCPKCPPPEMLGGPSIFIFPPKPKDTLSISRTPEVTCLVVDLGPDDSDVQITWFVDNTQVYTAKTSPREEQFNSTYRVVSVLPILHQDWLKGKEFKCKVNSKSLPSPIERTISKAKGQPHEPQVYVLPPAQEELSRNKVSVTCLIKSFHPPDIAVEWEITGQPEPENNYRTTPPQLDSDGTYFVYSKLSVDRSHWQRGNTYTCSVCHEALHSHHTQKSLTQSPGK |
| 119 nM | feline IgG1a S428A (antibody, part only; not given: Variable domains, not shown: another chain or arm of the molecule) constant: ASTTAPSVFPLAPSCGTTSGATVALACLVLGYFPEPVTVSWNSGALTSGVHTFPAVLQASGLYSLSSMVTVPSSRWLSDTFTCNVAHPPSNTKVDKTVRKTDHPPGPKPCDCPKCPPPEMLGGPSIFIFPPKPKDTLSISRTPEVTCLVVDLGPDDSDVQITWFVDNTQVYTAKTSPREEQFNSTYRVVSVLPILHQDWLKGKEFKCKVNSKSLPSPIERTISKAKGQPHEPQVYVLPPAQEELSRNKVSVTCLIKSFHPPDIAVEWEITGQPEPENNYRTTPPQLDSDGTYFVYSKLSVDRSHWQRGNTYTCSVAHEALHSHHTQKSLTQSPGK |
| 1850 nM | feline IgG1a S254H (antibody, part only; not given: Variable domains, not shown: another chain or arm of the molecule) constant: ASTTAPSVFPLAPSCGTTSGATVALACLVLGYFPEPVTVSWNSGALTSGVHTFPAVLQASGLYSLSSMVTVPSSRWLSDTFTCNVAHPPSNTKVDKTVRKTDHPPGPKPCDCPKCPPPEMLGGPSIFIFPPKPKDTLSIHRTPEVTCLVVDLGPDDSDVQITWFVDNTQVYTAKTSPREEQFNSTYRVVSVLPILHQDWLKGKEFKCKVNSKSLPSPIERTISKAKGQPHEPQVYVLPPAQEELSRNKVSVTCLIKSFHPPDIAVEWEITGQPEPENNYRTTPPQLDSDGTYFVYSKLSVDRSHWQRGNTYTCSVSHEALHSHHTQKSLTQSPGK |
| 6.76 nM | feline IgG1a S434K (antibody, part only; not given: variable domains and light chain, not shown: another chain or arm of the molecule) constant: ASTTAPSVFPLAPSCGTTSGATVALACLVLGYFPEPVTVSWNSGALTSGVHTFPAVLQASGLYSLSSMVTVPSSRWLSDTFTCNVAHPPSNTKVDKTVRKTDHPPGPKPCDCPKCPPPEMLGGPSIFIFPPKPKDTLSISRTPEVTCLVVDLGPDDSDVQITWFVDNTQVYTAKTSPREEQFNSTYRVVSVLPILHQDWLKGKEFKCKVNSKSLPSPIERTISKAKGQPHEPQVYVLPPAQEELSRNKVSVTCLIKSFHPPDIAVEWEITGQPEPENNYRTTPPQLDSDGTYFVYSKLSVDRSHWQRGNTYTCSVSHEALHKHHTQKSLTQSPGK |
| 83.9 nM | feline IgG1a S428F (antibody, part only; not given: Variable domains, not shown: another chain or arm of the molecule) constant: ASTTAPSVFPLAPSCGTTSGATVALACLVLGYFPEPVTVSWNSGALTSGVHTFPAVLQASGLYSLSSMVTVPSSRWLSDTFTCNVAHPPSNTKVDKTVRKTDHPPGPKPCDCPKCPPPEMLGGPSIFIFPPKPKDTLSISRTPEVTCLVVDLGPDDSDVQITWFVDNTQVYTAKTSPREEQFNSTYRVVSVLPILHQDWLKGKEFKCKVNSKSLPSPIERTISKAKGQPHEPQVYVLPPAQEELSRNKVSVTCLIKSFHPPDIAVEWEITGQPEPENNYRTTPPQLDSDGTYFVYSKLSVDRSHWQRGNTYTCSVFHEALHSHHTQKSLTQSPGK |
| 46.5 nM | feline IgG1a S254K (antibody, part only; not given: Variable domains, not shown: another chain or arm of the molecule) constant: ASTTAPSVFPLAPSCGTTSGATVALACLVLGYFPEPVTVSWNSGALTSGVHTFPAVLQASGLYSLSSMVTVPSSRWLSDTFTCNVAHPPSNTKVDKTVRKTDHPPGPKPCDCPKCPPPEMLGGPSIFIFPPKPKDTLSIKRTPEVTCLVVDLGPDDSDVQITWFVDNTQVYTAKTSPREEQFNSTYRVVSVLPILHQDWLKGKEFKCKVNSKSLPSPIERTISKAKGQPHEPQVYVLPPAQEELSRNKVSVTCLIKSFHPPDIAVEWEITGQPEPENNYRTTPPQLDSDGTYFVYSKLSVDRSHWQRGNTYTCSVSHEALHSHHTQKSLTQSPGK |
| 184 nM | feline IgG1a S428E (antibody, part only; not given: Variable domains, not shown: another chain or arm of the molecule) constant: ASTTAPSVFPLAPSCGTTSGATVALACLVLGYFPEPVTVSWNSGALTSGVHTFPAVLQASGLYSLSSMVTVPSSRWLSDTFTCNVAHPPSNTKVDKTVRKTDHPPGPKPCDCPKCPPPEMLGGPSIFIFPPKPKDTLSISRTPEVTCLVVDLGPDDSDVQITWFVDNTQVYTAKTSPREEQFNSTYRVVSVLPILHQDWLKGKEFKCKVNSKSLPSPIERTISKAKGQPHEPQVYVLPPAQEELSRNKVSVTCLIKSFHPPDIAVEWEITGQPEPENNYRTTPPQLDSDGTYFVYSKLSVDRSHWQRGNTYTCSVEHEALHSHHTQKSLTQSPGK |
| 474 nM | feline IgG1a S254D (antibody, part only; not given: Variable domains, not shown: another chain or arm of the molecule) constant: ASTTAPSVFPLAPSCGTTSGATVALACLVLGYFPEPVTVSWNSGALTSGVHTFPAVLQASGLYSLSSMVTVPSSRWLSDTFTCNVAHPPSNTKVDKTVRKTDHPPGPKPCDCPKCPPPEMLGGPSIFIFPPKPKDTLSIDRTPEVTCLVVDLGPDDSDVQITWFVDNTQVYTAKTSPREEQFNSTYRVVSVLPILHQDWLKGKEFKCKVNSKSLPSPIERTISKAKGQPHEPQVYVLPPAQEELSRNKVSVTCLIKSFHPPDIAVEWEITGQPEPENNYRTTPPQLDSDGTYFVYSKLSVDRSHWQRGNTYTCSVSHEALHSHHTQKSLTQSPGK |
| 362 nM | feline IgG1a S428D (antibody, part only; not given: Variable domains, not shown: another chain or arm of the molecule) constant: ASTTAPSVFPLAPSCGTTSGATVALACLVLGYFPEPVTVSWNSGALTSGVHTFPAVLQASGLYSLSSMVTVPSSRWLSDTFTCNVAHPPSNTKVDKTVRKTDHPPGPKPCDCPKCPPPEMLGGPSIFIFPPKPKDTLSISRTPEVTCLVVDLGPDDSDVQITWFVDNTQVYTAKTSPREEQFNSTYRVVSVLPILHQDWLKGKEFKCKVNSKSLPSPIERTISKAKGQPHEPQVYVLPPAQEELSRNKVSVTCLIKSFHPPDIAVEWEITGQPEPENNYRTTPPQLDSDGTYFVYSKLSVDRSHWQRGNTYTCSVDHEALHSHHTQKSLTQSPGK |
| 101 nM | feline IgG1a S254M (antibody, part only; not given: Variable domains, not shown: another chain or arm of the molecule) constant: ASTTAPSVFPLAPSCGTTSGATVALACLVLGYFPEPVTVSWNSGALTSGVHTFPAVLQASGLYSLSSMVTVPSSRWLSDTFTCNVAHPPSNTKVDKTVRKTDHPPGPKPCDCPKCPPPEMLGGPSIFIFPPKPKDTLSIMRTPEVTCLVVDLGPDDSDVQITWFVDNTQVYTAKTSPREEQFNSTYRVVSVLPILHQDWLKGKEFKCKVNSKSLPSPIERTISKAKGQPHEPQVYVLPPAQEELSRNKVSVTCLIKSFHPPDIAVEWEITGQPEPENNYRTTPPQLDSDGTYFVYSKLSVDRSHWQRGNTYTCSVSHEALHSHHTQKSLTQSPGK |
